In patent US10100120B2, “Antibody which specifically binds to human CRTH2” (KYOWA HAKKO KIRIN CO., LTD, priority 2015, dated 2018):

Experiments:
[1] = tested on: human eosinophils; experiment: Reactivity against human eosinophils, flow cytometry; type: binding; conditions: 0.12-10 μg/mL, 4° C., 1 hour; FIG. 8
Method: To human peripheral blood collected by adding a heparin sodium injection liquid, the same amount of physiological saline for injection as the human peripheral blood was added thereto and mixed with each other. 15 mL of Ficoll-Paque PREMIUM 1.084 (GE Healthcare) was added to a 50 mL centrifuge tube, 30 mL of the above described human peripheral blood diluted with physiological saline was overlaid thereon, and centrifugation was performed at room temperature and 1500 rpm for 30 minutes. […]
After the number of cells was counted, eosinophils were isolated by a negative selection method using CD16 MicroBeads, human (Miltenyi Biotec) according to the attached instructions. […]
After the cells were washed, CELL LAB Mouse Anti-Rat Kappa (kappa light chain specific) FITC (Beckman Coulter Inc.) diluted with SM was added to wells to which Lym2 antibody or BM16 was added and CELL LAB Goat Anti-Mouse IgG (γ chain specific) Fluorescein (FITC) Conjugate (Beckman Coulter Inc.) diluted with SM was added to wells to which 301108 was added at a final concentration of 10 μg/mL respectively to cause a reaction at 4° C. for 1 hour. The cells were washed again and suspended with SM, and the fluorescent intensity was analyzed by flow cytometry (BD Biosciences, FACS CantoII).

[2] = tested on: human eosinophils; experiment: Antagonist activity using shape change of human eosinophils as index (Example 19); type: cell-based; conditions: antibody 10 μg/mL or small molecule 10 μM, DKPGD2 0.1-1000 nM; FIG. 16
Method: Eosinophils were separated from human peripheral blood in the same manner as in Example 11. The isolated human eosinophils were suspended with Dulbecco's phosphate buffered saline (hereinafter, referred to as D-PBS (−)) (NACALAI TESQUE, Inc.) and performed a reaction in a 5% CO2 incubator at 37° C. for 1 hour and 30 minutes. Thereafter, the cells were seeded in a 96-well plate at 2×10^5 cells/well using 10% FBS-containing RPMI1640. Next, an isotype control antibody [CELL LAB Rat IgG2b Isotype Control (Beckman Coulter Inc.)] at a final concentration of 10 μg/mL or Lym2 antibody; or small molecular CRTH2 antagonist 00000459 (Cayman Chemical) at a final concentration of 10 μM as a positive control, was added thereto to cause a reaction in a 5% CO2 incubator at 37° C. for 30 minutes.
Next, DKPGD2 (Cayman Chemical) at each of final concentrations of 0.1, 1, 10, 100, and 1000 nM was added thereto to cause a reaction in a 5% CO2 incubator at 37° C. for 60 minutes. After the reaction, the cells were washed twice with ice-cold PBS, Fixation Buffer (BD Biosciences) was added at 200 μL/well, and the resultant was suspended well and allowed to stand at 4° C. for 30 minutes. After that, the cells were washed twice with SM, and shape change of eosinophils was analyzed by flow cytometry (BD Biosciences, FACS CantoII).
The shape change of eosinophils was analyzed based on an increase in Forward Scatter Light (FSC) plot which is an index of the cell size, the cell surface area, or the cell diameter in the analysis using flow cytometry and the percentage (%) of eosinophils detected in the gate of high FSC was calculated based on the FSC of DKPGD2-untreated eosinophils.

B1: Lym2 antibody: rat anti-human CRTH2 monoclonal antibody from hybridoma Lym2, rat IgG2b; VH SEQ ID NO: 17, VL SEQ ID NO: 19 (antibody, listed as Rattus norvegicus, V domains shown)
VH: EVQLVESGGGLVQPGRSMKLSCAASGFTFSNYYMAWVRQAPKKGLEWVATISYDGSSTYYRDSVKGRFTISRDNAKSTLYLQMDSLRSEDTATYYCARHRGYYYSGAGYFDYWGQGVMVTVSS
VL: DVVLTQTPVSLSVTLGDQASISCRSSQSLEYSDGYTYLEWYLQKPGQSPQVLIYGVSNRFSGVPDRFIGSGSGTDFTLKISRVEPEDLGVYYCFQATHDPLTFGSGTKLEIK
[1]
  reactivity against human eosinophils: stronger reactivity
[2]
  inhibition of DKPGD2-dependent shape change of eosinophils (antagonist activity): didn't inhibit
